Measured values taken from PMC4189725.

Molecular target: CD40-FasL
Experiment: SEC; gel filtration (Superdex 200) of CD40-FasL conditioned medium; fractions analysed by Western blot (anti FasL) and CD40 ELISA

stoichiometry N: 6
Substance: CD40-FasL
